Molecular target: T1, GST-CycT1 (UniProt O60563 1-726)
T1 construct: Cyclin T1, cDNA cloned into pGEX-4T-1; also called GST fused CycT1 protein; source: Escherichia coli (DE3), purified
Assay: pull-down; GST pull-down: purified GST fused protein as bait and purified His-tag protein; pull-down buffer 150 mM NaCl, 50 mM Tris pH 7.5, 0.1% NP-40, 5 mM DTT; western blot
Settings: both partners purified

T1 sequence (O60563 whole entry, the tested form may be a part): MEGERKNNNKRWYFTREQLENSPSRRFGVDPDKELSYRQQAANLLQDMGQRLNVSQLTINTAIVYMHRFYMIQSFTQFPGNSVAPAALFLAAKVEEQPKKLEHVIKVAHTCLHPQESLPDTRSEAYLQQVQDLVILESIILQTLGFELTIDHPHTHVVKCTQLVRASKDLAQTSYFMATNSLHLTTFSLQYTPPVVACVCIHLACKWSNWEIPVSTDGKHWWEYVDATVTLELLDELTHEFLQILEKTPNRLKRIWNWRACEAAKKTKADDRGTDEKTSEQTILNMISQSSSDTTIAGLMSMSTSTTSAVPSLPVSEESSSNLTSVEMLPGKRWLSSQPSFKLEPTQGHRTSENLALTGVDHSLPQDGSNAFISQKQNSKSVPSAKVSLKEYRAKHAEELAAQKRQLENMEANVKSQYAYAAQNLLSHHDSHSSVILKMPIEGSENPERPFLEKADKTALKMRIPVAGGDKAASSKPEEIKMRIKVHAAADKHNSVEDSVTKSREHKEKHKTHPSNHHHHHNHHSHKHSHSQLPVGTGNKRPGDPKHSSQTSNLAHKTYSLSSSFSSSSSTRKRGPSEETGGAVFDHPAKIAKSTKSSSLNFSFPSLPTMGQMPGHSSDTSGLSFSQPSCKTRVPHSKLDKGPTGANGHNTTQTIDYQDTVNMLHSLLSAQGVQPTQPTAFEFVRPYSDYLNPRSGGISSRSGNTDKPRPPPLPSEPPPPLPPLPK

B1: His-Menin (natural protein, UniProt O00255 1-610, looked up)
chain: MGLKAAQKTLFPLRSIDDVVRLFAAELGREEPDLVLLSLVLGFVEHFLAVNRVIPTNVPELTFQPSPAPDPPGGLTYFPVADLSIIAALYARFTAQIRGAVDLSLYPREGGVSSRELVKKVSDVIWNSLSRSYFKDRAHIQSLFSFITGTKLDSSGVAFAVVGACQALGLRDVHLALSEDHAWVVFGPNGEQTAEVTWHGKGNEDRRGQTVNAGVAERSWLYLKGSYMRCDRKMEVAFMVCAINPSIDLHTDSLELLQLQQKLLWLLYDLGHLERYPMALGNLADLEELEPTPGRPDPLTLYHKGIASAKTYYRDEHIYPYMYLAGYHCRNRNVREALQAWADTATVIQDYNYCREDEEIYKEFFEVANDVIPNLLKEAASLLEAGEERPGEQSQGTQSQGSALQDPECFAHLLRFYDGICKWEEGSPTPVLHVGWATFLVQSLGRFEGQVRQKVRIVSREAEAAEAEEPWGEEAREGRRRGPRRESKPEEPPPPKKPALDKGLGTGQGAVSGPPRKPPGTVAGTARGPEGGSTAQVPAPTASPPPEGPVLTFQSEKMKGMKELLVATKINSSAIKLQLTAQSQVQMKKQKVSTPSDYTLSFLKRQRKGL
notes: Menin, MEN1 cDNA cloned into pET-22b (+); also called His-tagged Menin protein; recombinant His-Menin protein; source: Escherichia coli (DE3), purified
binding result: binds

Source: article PMC5424160, “Menin enhances c-Myc-mediated transcription to promote cancer progression” (Nature Communications, 2017)
